In the Immune Epitope Database (IEDB):
pKd: −log10 of the molar value.

Tests used:
HLA-A*26:01 = assay: IEDB peptide-MHC binding, purified MHC/competitive/radioactivity; filed as Kd, often an IC50 or EC50 that approximates it; ≥ and ≤ were set here for values at or beyond the usual limits of such assays
HLA-A*30:02 = assay: as above
HLA-A*24:02 = assay: as above
HLA-A*01:01 [1] = assay: as above
HLA-A*29:02 = assay: as above
HLA-A*23:01 = assay: as above
HLA-B*07:02 = assay: IEDB peptide-MHC binding, purified MHC/direct/fluorescence; filed as Kd, often an IC50 or EC50 that approximates it; ≥ and ≤ were set here for values at or beyond the usual limits of such assays; conditions: source organism: Homo sapiens
HLA-A*69:01 = assay: as above; conditions: source organism: Homo sapiens
HLA-B*58:01 = assay: as above
HLA-A*11:01 = assay: as above
HLA-B*15:01 = assay: as above; conditions: source organism: SARS-CoV1
HLA-A*01:01 [2] = assay: as above
HLA-A*03:01 = assay: as above
HLA-B*44:03 = assay: IEDB peptide-MHC binding, purified MHC/competitive/radioactivity; filed as Kd, often an IC50 or EC50 that approximates it; ≥ and ≤ were set here for values at or beyond the usual limits of such assays
HLA-B*44:02 = assay: as above
HLA-B*40:01 = assay: as above
[3] = source organism: Lassa virus Josiah
[4] = source organism: SARS coronavirus Tor2
[5] = source organism: Dengue virus 4 Philippines/H241/1956
[6] = source organism: Mammarenavirus guanaritoense
[7] = source organism: Dengue virus 3 Martinique/1243/1999
[8] = source organism: Mammarenavirus choriomeningitidis

Sequence: SDAHKKNLY
- pKd (HLA-A*26:01; [3]): ≤ 4.11
- pKd (HLA-A*30:02; [3]): 5.79
- pKd (HLA-A*24:02; [3]): ≤ 4.11
- pKd (HLA-A*01:01 [1]; [3]): 5.95
- pKd (HLA-A*29:02; [3]): ≤ 4.16
- pKd (HLA-A*23:01; [3]): ≤ 4.11

Sequence: EPEPHILLF
- pKd (HLA-B*07:02): 5.26
- pKd (HLA-A*69:01): 5.15

Sequence: HFAIGLALYY
- pKd (HLA-A*26:01; [4]): 8.19
- pKd (HLA-A*30:02; [4]): 6.63
- pKd (HLA-A*24:02; [4]): ≤ 4.15
- pKd (HLA-A*01:01 [1]; [4]): 5.63
- pKd (HLA-A*29:02; [4]): 9.63
- pKd (HLA-A*23:01; [4]): ≤ 4.22

Sequence: FYFTNDVSFL
- pKd (HLA-A*26:01; [4]): 5.03
- pKd (HLA-A*30:02; [4]): ≤ 4.47
- pKd (HLA-A*24:02; [4]): 7.32
- pKd (HLA-A*01:01 [1]; [4]): 5.70
- pKd (HLA-A*29:02; [4]): 6.42
- pKd (HLA-A*23:01; [4]): 7.23

Sequence: LTDDMIAAY
- pKd (HLA-A*26:01; [4]): 5.74
- pKd (HLA-A*30:02; [4]): 6.49
- pKd (HLA-A*24:02; [4]): ≤ 4.11
- pKd (HLA-A*29:02; [4]): 6.28
- pKd (HLA-A*23:01; [4]): ≤ 4.11
- pKd (HLA-B*58:01; source organism: SARS-CoV1): 5.16
- pKd (HLA-A*11:01; source organism: SARS-CoV1): 5.39
- pKd (HLA-B*15:01): 6.20
- pKd (HLA-A*01:01 [2]; source organism: SARS-CoV1): 8.15
- pKd (HLA-A*03:01; source organism: SARS-CoV1): 4.71

Sequence: KEAKMLLDNI
- pKd (HLA-B*44:03; source organism: Dengue virus 2 Jamaica/1409/1983): 5.75

Sequence: MEFIDGISL
- pKd (HLA-B*44:02; [5]): 6.74
- pKd (HLA-B*40:01; [5]): 9.74
- pKd (HLA-B*44:03; [5]): 7.28

Sequence: KYILIQAGF
- pKd (HLA-A*24:02; [6]): 7.92
- pKd (HLA-A*29:02; [6]): 5.43
- pKd (HLA-A*23:01; [6]): 8.75

Sequence: AICSAVPVDW
- pKd (HLA-B*44:02; source organism: Dengue virus 1 Brazil/97-11/1997): 6.05

Sequence: IESQKNGSW
- pKd (HLA-B*44:02; [7]): 6.34
- pKd (HLA-B*44:03; [7]): 6.78

Sequence: TENILTVLL
- pKd (HLA-B*44:02; [7]): 9.39
- pKd (HLA-B*40:01; [7]): 7.91
- pKd (HLA-B*44:03; [7]): 6.45

Sequence: ILGPPGSVY
- pKd (HLA-B*07:02): ≤ 4.48
- pKd (HLA-B*58:01; source organism: Homo sapiens): 6.49
- pKd (HLA-A*11:01; source organism: Homo sapiens): 5.78
- pKd (HLA-A*01:01 [2]; source organism: Homo sapiens): 5.19
- pKd (HLA-A*03:01; source organism: Homo sapiens): 6.07

Sequence: WCSQTDYQYL
- pKd (HLA-A*26:01; [8]): ≤ 4.16
- pKd (HLA-A*30:02; [8]): 4.97
- pKd (HLA-A*24:02; [8]): 4.82
- pKd (HLA-A*01:01 [1]; [8]): 4.88
- pKd (HLA-A*29:02; [8]): 5.03
- pKd (HLA-A*23:01; [8]): 4.97

Sequence: KEENMVKSL
- pKd (HLA-B*40:01; [7]): 6.81
